{
  "source": "paper doi:10.1101/2023.11.02.565302",
  "target": "ligand-binding domain (LBD) of rat GluK1 (rat)",
  "test": "crystal structure",
  "data": [
    {"substance": "ligand-binding domain (LBD) of rat GluK1 (domain or fragment)", "values": [
      {"measurement": "stoichiometry N", "value": 2}
    ]}
  ]
}
